# Assay results published in the RNAGym collection of RNA variant scans (doi:10.7554/elife.80360).
# B1: CPEB3 Ribozyme (parent)
# chain: GGGGGCCACAGCAGAAGCGUUCACGUCGCGGCCCCUGUCAGAUUCUGGUGAAUCUGCGAAUUCUGCUGU
# Variants of: B1
# Assay: self-cleavage, relative activity (ratio to wild type); higher = more cleavage; co-transcriptional
row,Variant,self-cleavage
1,GGGGGCCACAGCAGAAGCGUUCGCGUCGUGGCCCCUGUCAGAUUCUGGUGAAUCUGCGAAUUCUGCUGU [A23G C29U],0.217
2,GGGGGCCACAGCAGAAGCGUUCCCGUCGCGGCCCCUGUCAGAUUCUGGUGAAUCUGCUAAUUCUGCUGU [A23C G58U],0.929
3,GGGGGCCACAGCAGAAGCGUUCCCGUCGCGGCCCCUGUCAGAUUCUGGUGAAUCUGCAAAUUCUGCUGU [A23C G58A],0.89
4,GGGGGCCACAGCAGAAGCGUUCCCGUCGCGGCCCCUGUCAGAUUCUGGUGAAUCUGCGAAUUCUGCGGU [A23C U67G],0.968
5,GGGGGCCACAGCAGAAGCGUUCCCGUCGCGGCCCCUGUCAGAUUCUGGUGAAUCGGCGAAUUCUGCUGU [A23C U55G],0.708
6,GGGGGCCACAGCAGAAGCGUUCCCGUCGCGGCCCCUGUCAGAUUCUGGUGAAUCAGCGAAUUCUGCUGU [A23C U55A],0.866
7,GGGGGCCACAGCAGAAGCGUUCGCGUCGCGGCCCCUGUCAGAUUCUGGUAAAUCUGCGAAUUCUGCUGU [A23G G50A],0.971
8,GGGGGCCACAGCAGAAGCGUUCGCGUCGCGGCCCCUGUCAGAUUCUGGUUAAUCUGCGAAUUCUGCUGU [A23G G50U],0.971
9,GGGGGCCACAGCAGAAGCGUUCGCGUGGCGGCCCCUGUCAGAUUCUGGUGAAUCUGCGAAUUCUGCUGU [A23G C27G],0.175
10,GGGGGCCACAGCAGAAGCGUUCCCGUCGCGGCCCCGGUCAGAUUCUGGUGAAUCUGCGAAUUCUGCUGU [A23C U36G],0.326
11,GGGGGCCACAGCAGAAGCGUUCCCGUCGCGGCCCCAGUCAGAUUCUGGUGAAUCUGCGAAUUCUGCUGU [A23C U36A],0.335
12,GGGGGCCACAGCAGAAGCGUUCUCGUCGCGGCCCCUGUCAGAUUCUGGUGGAUCUGCGAAUUCUGCUGU [A23U A51G],0.954
13,GGGGGCCACAGCAGAAGCGUUCUCGUCGCGGACCCUGUCAGAUUCUGGUGAAUCUGCGAAUUCUGCUGU [A23U C32A],0.893
14,GGGGGCCACAGCAGAAGCGUUCUCGUCGCGGCCCCUGUCAGAUUCUGGUGAAUCUGCGAAUUCUGAUGU [A23U C66A],0.886
15,GGGGGCCACAGCAGAAGCGUUCUGGUCGCGGCCCCUGUCAGAUUCUGGUGAAUCUGCGAAUUCUGCUGU [A23U C24G],0.556
16,GGGGGCCACAGCAGAAGCGUUCUUGUCGCGGCCCCUGUCAGAUUCUGGUGAAUCUGCGAAUUCUGCUGU [A23U C24U],0.924
17,GGGGGCCACAGCAGAAGCGUUCCCGUCGCGGCCCCUGUCAGAUUCUGGGGAAUCUGCGAAUUCUGCUGU [A23C U49G],0.916
18,GGGGGCCACAGCAGAAGCGUUCGCGUCGCGGCCCCUGUCAGAUUCUGGUGAAUCUACGAAUUCUGCUGU [A23G G56A],0.953
19,GGGGGCCACAGCAGAAGCGUUCGCGUCGCGGCCCCUGUCAGAUUCUGGUGAAUCUGCAAAUUCUGCUGU [A23G G58A],0.991
20,GGGGGCCACAGCAGAAGCGUUCGCGUCGCGGCCCCUGUCAGAUUCUGGUGAAUCUGCUAAUUCUGCUGU [A23G G58U],0.972
21,GGGGGCCACAGCAGAAGCGUUCCCGUCGCGGCCCCUGUCAGAUUCUGGUGAAUCUGCGAAUUCAGCUGU [A23C U64A],0.833
22,GGGGGCCACAGCAGAAGCGUUCGCGUCGCGGCCCCUGUUAGAUUCUGGUGAAUCUGCGAAUUCUGCUGU [A23G C39U],0.86
23,GGGGGCCACAGCAGAAGCGUUCCCGUCGCGGCCCCUGUCAGAUUCUGGUGAAUCUUCGAAUUCUGCUGU [A23C G56U],0.88
24,GGGGGCCACAGCAGAAGCGUUCGCGCCGCGGCCCCUGUCAGAUUCUGGUGAAUCUGCGAAUUCUGCUGU [A23G U26C],1.03
25,GGGGGCCACAGCAGAAGCGUUCGCGGCGCGGCCCCUGUCAGAUUCUGGUGAAUCUGCGAAUUCUGCUGU [A23G U26G],0.788
26,GGGGGCCACAGCAGAAGCGUUCGCGUCGCGGCCCCUGUCAGAUUCUGGUGAAUCUGCGGAUUCUGCUGU [A23G A59G],1.01

row,Variant,self-cleavage
1,GGGGGCCACAGCAGAAGCGUUCUCGUCGCGGCUCCUGUCAGAUUCUGGUGAAUCUGCGAAUUCUGCUGU [A23U C33U],0.998
2,GGGGGCCACAGCAGAAGCGUUCGCGUCCCGGCCCCUGUCAGAUUCUGGUGAAUCUGCGAAUUCUGCUGU [A23G G28C],0.13
3,GGGGGCCACAGCAGAAGCGUUCGCGUCACGGCCCCUGUCAGAUUCUGGUGAAUCUGCGAAUUCUGCUGU [A23G G28A],0.136
4,GGGGGCCACAGCAGAAGCGUUCUCGUCGCGGCCCCUGUCAGAUUGUGGUGAAUCUGCGAAUUCUGCUGU [A23U C45G],1
5,GGGGGCCACAGCAGAAGCGUUCUCGUCGCGGCCCCUGUCAGAUUAUGGUGAAUCUGCGAAUUCUGCUGU [A23U C45A],0.997
6,GGGGGCCACAGCAGAAGCGUUCGCGUCGCGGCCCCUGUCUGAUUCUGGUGAAUCUGCGAAUUCUGCUGU [A23G A40U],0.665
7,GGGGGCCACAGCAGAAGCGUUCUCGUCGCGGCCCCUGUCAGAUUCUGGUGAAUCUGCGUAUUCUGCUGU [A23U A59U],0.969
8,GGGGGCCACAGCAGAAGCGUUCUCGUCGCGGCCCCUGUCAGAUUCUGGUGAAUCUGCGCAUUCUGCUGU [A23U A59C],0.888
9,GGGGGCCACAGCAGAAGCGUUCGCGUCGCGUCCCCUGUCAGAUUCUGGUGAAUCUGCGAAUUCUGCUGU [A23G G31U],0.583
10,GGGGGCCACAGCAGAAGCGUUCGCGUCGCGACCCCUGUCAGAUUCUGGUGAAUCUGCGAAUUCUGCUGU [A23G G31A],0.781
11,GGGGGCCACAGCAGAAGCGUUCCCGUCGCGGCCCCUGUCAGAUUCUGGUGAAUCUGCGAAUUCUGCUGG [A23C U69G],1.02
12,GGGGGCCACAGCAGAAGCGUUCCCGUCGCGGCCCCUGUCAGAUUCUGGUGAAACUGCGAAUUCUGCUGU [A23C U53A],0.89
13,GGGGGCCACAGCAGAAGCGUUCGCGUCGCGGCCCCUGUCAGAUUCUGGUGAAGCUGCGAAUUCUGCUGU [A23G U53G],0.85
14,GGGGGCCACAGCAGAAGCGUUCGCGUCGCGGCCGCUGUCAGAUUCUGGUGAAUCUGCGAAUUCUGCUGU [A23G C34G],0.243
15,GGGGGCCACAGCAGAAGCGUUCUCGUCGCGGCCCCUGUCAGCUUCUGGUGAAUCUGCGAAUUCUGCUGU [A23U A42C],0.992
16,GGGGGCCACAGCAGAAGCGUUCUCGUCGCGGCCCCUGUCAGUUUCUGGUGAAUCUGCGAAUUCUGCUGU [A23U A42U],1
17,GGGGGCCACAGCAGAAGCGUUCUCGUCGCGGCCCCUGUCAGGUUCUGGUGAAUCUGCGAAUUCUGCUGU [A23U A42G],0.978
18,GGGGGCCACAGCAGAAGCGUUCUCGUCGCGGCCUCUGUCAGAUUCUGGUGAAUCUGCGAAUUCUGCUGU [A23U C34U],1.01
19,GGGGGCCACAGCAGAAGCGUUCCCGUCGCGGCCCCUGUCAGAUUCUGGUGAAUCUGCGAACUCUGCUGU [A23C U61C],0.689
20,GGGGGCCACAGCAGAAGCGUUCGCCUCGCGGCCCCUGUCAGAUUCUGGUGAAUCUGCGAAUUCUGCUGU [A23G G25C],0.169
21,GGGGGCCACAGCAGAAGCGUUCGCGUCGCGGCCCCUGUCAGUUUCUGGUGAAUCUGCGAAUUCUGCUGU [A23G A42U],0.862
22,GGGGGCCACAGCAGAAGCGUUCGCGUCGCGGCCCCUGUCAGCUUCUGGUGAAUCUGCGAAUUCUGCUGU [A23G A42C],0.911
23,GGGGGCCACAGCAGAAGCGUUCGCGUCGCGGCCCCUGUCAGGUUCUGGUGAAUCUGCGAAUUCUGCUGU [A23G A42G],0.867
24,GGGGGCCACAGCAGAAGCGUUCGCGUCGCGGCCCCUGUCAGAUUAUGGUGAAUCUGCGAAUUCUGCUGU [A23G C45A],0.955
25,GGGGGCCACAGCAGAAGCGUUCCCGACGCGGCCCCUGUCAGAUUCUGGUGAAUCUGCGAAUUCUGCUGU [A23C U26A],0.628
26,GGGGGCCACAGCAGAAGCGUUCCCGCCGCGGCCCCUGUCAGAUUCUGGUGAAUCUGCGAAUUCUGCUGU [A23C U26C],0.966

row,Variant,self-cleavage
1,GGGGGCCACAGCAGAAGCGUUCCCGUCGCGGCCCCUGUCAGAUUCUUGUGAAUCUGCGAAUUCUGCUGU [A23C G47U],0.993
2,GGGGGCCACAGCAGAAGCGUUCUCGUCGCGGCCCAUGUCAGAUUCUGGUGAAUCUGCGAAUUCUGCUGU [A23U C35A],0.395
3,GGGGGCCACAGCAGAAGCGUUCCCGUCGCGGCCCCUGUCAGAUUCUGUUGAAUCUGCGAAUUCUGCUGU [A23C G48U],0.942
4,GGGGGCCACAGCAGAAGCGUUCCCGUCGCGGCCCCUGUCAGAUUCUGAUGAAUCUGCGAAUUCUGCUGU [A23C G48A],0.978
5,GGGGGCCACAGCAGAAGCGUUCGCGUCGCGGCCCCUGUCAGAUUCUGGUGAAUCUGCGAAAUCUGCUGU [A23G U61A],0.867
6,GGGGGCCACAGCAGAAGCGUUCGCGUCGCGGCCCCUGUCAGAUUCUGGUGAAUCUGCGAAGUCUGCUGU [A23G U61G],0.734
7,GGGGGCCACAGCAGAAGCGUUCCCGUCGCGGCCCCUGUCAGAUUCGGGUGAAUCUGCGAAUUCUGCUGU [A23C U46G],0.962
8,GGGGGCCACAGCAGAAGCGUUCCCGUCGCGGCCCCUGUCAGAUUCCGGUGAAUCUGCGAAUUCUGCUGU [A23C U46C],0.959
9,GGGGGCCACAGCAGAAGCGUUCGCGUCGCGGCCCCUGUCAGAUUCUGGUGAAUCUGCGAAUUCCGCUGU [A23G U64C],0.777
10,GGGGGCCACAGCAGAAGCGUUCGCGUCGCGGCCCCUGUCAGAUUCUGGUGAAUCUGCGAAUUCGGCUGU [A23G U64G],0.738
11,GGGGGCCACAGCAGAAGCGUUCCCGUCGCGGCCCCUGUCAGACUCUGGUGAAUCUGCGAAUUCUGCUGU [A23C U43C],0.89
12,GGGGGCCACAGCAGAAGCGUUCUCGUCGCGGCCCCUGUCAGAUUCUGGUGAAUCUGGGAAUUCUGCUGU [A23U C57G],0.358
13,GGGGGCCACAGCAGAAGCGUUCGCGUCGCGGCCCCUGUCAGAUUCUGGUGAAUCUGAGAAUUCUGCUGU [A23G C57A],0.394
14,GGGGGCCACAGCAGAAGCGUUCGCGUCGCGGCCCUUGUCAGAUUCUGGUGAAUCUGCGAAUUCUGCUGU [A23G C35U],0.935
15,GGGGGCCACAGCAGAAGCGUUCCCGUCGCGGCCCCUGACAGAUUCUGGUGAAUCUGCGAAUUCUGCUGU [A23C U38A],0.75
16,GGGGGCCACAGCAGAAGCGUUCCCGUCGCGGCCCCUGCCAGAUUCUGGUGAAUCUGCGAAUUCUGCUGU [A23C U38C],0.85
17,GGGGGCCACAGCAGAAGCGUUCCCGUCGCGGCCCCUGUCAGAUUCUGGUGAAUCUGCGAAUACUGCUGU [A23C U62A],0.755
18,GGGGGCCACAGCAGAAGCGUUCGCGUCGCGGGCCCUGUCAGAUUCUGGUGAAUCUGCGAAUUCUGCUGU [A23G C32G],0.337
19,GGGGGCCACAGCAGAAGCGUUCGCGUCGCGGCCCCUGUCAGAUUCAGGUGAAUCUGCGAAUUCUGCUGU [A23G U46A],1.01
20,GGGGGCCACAGCAGAAGCGUUCGCGUCGCGGCCCCUGUCAGAUUCGGGUGAAUCUGCGAAUUCUGCUGU [A23G U46G],1.01
21,GGGGGCCACAGCAGAAGCGUUCCCGUCGCGGCCCCUGUCAGAUUCUGGUGAAUCUGCGAAUUCUGCUAU [A23C G68A],0.969
22,GGGGGCCACAGCAGAAGCGUUCGCGUCGCGGCCCCUGUCAGAUUCUGGUGCAUCUGCGAAUUCUGCUGU [A23G A51C],0.914
23,GGGGGCCACAGCAGAAGCGUUCGCGUCGCGGCCCCUGUCAGAUUCUGGUGGAUCUGCGAAUUCUGCUGU [A23G A51G],0.962
24,GGGGGCCACAGCAGAAGCGUUCCCGUCGCGGCCCCUGUCAGAUACUGGUGAAUCUGCGAAUUCUGCUGU [A23C U44A],0.936
25,GGGGGCCACAGCAGAAGCGUUCCCGUCGCGGCCCCUGUCAGAUGCUGGUGAAUCUGCGAAUUCUGCUGU [A23C U44G],0.946
26,GGGGGCCACAGCAGAAGCGUUCGCGUCGCGGCCCCUGUCAGAUUCUGAUGAAUCUGCGAAUUCUGCUGU [A23G G48A],1
